Laboratory results taken from patent US20020077289A1, “Angiostatin and endostatin binding proteins and methods of use” (priority 2000, published 2002).

Key:
[1] = parenteral administration; cited from earlier work
[2] = target: T1, rhTM3 (human tropomyosin isoform 3) (Homo sapiens, UniProt P09493); assay: Surface plasmon resonance (BIAcore) binding to immobilized rhTM3; details: steady state model; soluble rhEndostatin over immobilized rhTM3 (3200 RU); 25° C; read-out: dissociation constant (KD) for the rhEndostatin/rhTM3 interaction
T1 construct: made in house; host or cells: E. coli BL21 (DE3), pET-21a(+)
T1 sequence (P09493 1-284 isoform P09493-3): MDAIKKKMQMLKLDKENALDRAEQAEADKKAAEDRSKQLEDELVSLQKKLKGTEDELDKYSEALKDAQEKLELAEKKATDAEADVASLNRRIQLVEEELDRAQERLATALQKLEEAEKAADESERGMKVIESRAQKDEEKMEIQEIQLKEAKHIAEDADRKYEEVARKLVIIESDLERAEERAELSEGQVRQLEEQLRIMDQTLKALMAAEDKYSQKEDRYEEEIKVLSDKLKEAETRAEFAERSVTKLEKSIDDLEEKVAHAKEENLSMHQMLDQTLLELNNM
Method: (A), 0, 10, 20, 40, 80 and 160 micromolar (μM) of rhEndostatin were injected at 5 microliters per minute (μl/minute) for 960 seconds through a biosensor flow cell that had been activated and blocked as a control for bulk refractive index and subsequently through a flow cell to which 3200 response units (RU) of rhTM3 had been immobilized. The binding kinetics were recorded and the differences between the two curves plotted for each rhEndostatin concentration. (B), 0, 11.5, 23 and 46 micromolar (μM) of rhAngiostatin were injected at 5 microliters per minute (μl/minute) for 900 seconds over a flow cell containing 3200 RU of rhTM3 as above. Samples were run in duplicate, the data corrected for bulk shift and the average of the 2 curves plotted. (C), Injection of 5 micromolar (μM) of rhEndostatin at 5 microliters per minute (μl/minute) for 240 seconds in the presence of 0, 6, 15, 30 and 45 micromolar (μM) of soluble rhTM3 over a flow cell containing 2000 RU of rhTM3. Samples were run in duplicate, the reference cell values subtracted and the average of each of the 2 curves plotted. The spikes in RU seen at the beginning and end of each injection are due to lag in flow caused by the rhTM3 and reference cells being non-adjacent.
Interactions between purified soluble rhEndostatin and rhTM3 were evaluated by surface plasmon resonance using the BIAcore 3000 (BiaCore, Piscataway, N.J.). The purified rhTM3 was immobilized on the flow cell of a CM-5 BIAcore biosensor chip. The running buffer was 0.01 M HEPES, pH 7.4, 0.15M NaCl and 0.005% polysorbate 20 (v/v). The competition experiments involving soluble rhTM3 were performed using PBS pH 7.4 as running buffer. All measurements were performed at 25° C. To correct for differences in bulk refraction all protein preparations were passed over an activated and blocked flow cell to which no protein had been coupled. Effects due to bulk shift were subtracted from experimental data.
Surface plasmon resonance performed using the BIAcore 3000 (BiaCore, Piscataway, N.J.) was used to assess the kinetics of rhEndostatin/rhTM3 binding. […]

intratumoral blood flow = details: systemic rhEndostatin therapy; cited from earlier work
B16-BL6 melanoma cells = assay: B16-BL6 experimental metastasis assay; assay type: in vivo, C57BL/6J mice
Method: C57BL/6J mice were injected via the tail vein with 5×10^4 B16-BL6 melanoma cells on day 0. On day 3, groups of five mice received daily subcutaneous doses of either buffer control, 1.5 nmol (1.5 mg/kg/day) of rhEndostatin in combination with 0, 15, 75 or 375 nmol of control or E37 peptide, or control or E37 peptide alone for eleven days. All mice were sacrificed on day 14, and the number of pulmonary surface metastases in each animal counted. Error bars indicate standard deviation of the mean.
C57BL/6J mice (n=8) were injected intravenously (i.v.) with 5×10^4 B16-BL6 cells/mouse. Three days later treatment commenced. 100 μl of citrate-phosphate buffer (66 mM Sodium Phosphate, 17 mM Citric acid, 59 mM NaCl pH 6.2) containing 1.5 nmol of rhEndostatin and 100 μl of PBS containing either 0, 15, 75 or 375 nmol of control or E37 peptide were mixed and injected subcutaneously (s.c.) daily for 11 days. All mice were then sacrificed, their lungs removed and the number of surface metastases counted. Results were analyzed for statistical significance using the 2-tailed Student's t-test.
The following experiment was conducted to determine the interaction of E37 peptide and Endostatin protein. Briefly, the B16BL6 experimental metastasis assay, as known to those of skill in the art and further described in International Patent Application number PCT/US99/11418, was performed as follows. 5×10^4 B16-BL6 cells in 200 μl of PBS were injected into C57BL/6J mice via the tail vein. Three days post injection treatment was started. The injection received by eight groups of mice were: 1) citrate phosphate/PBS buffer, 2) ^30 μg Endostatin protein (in 100 μl PBS), 3) 30 μg Endostatin protein (in 200 μl PBS), 4) 30 μg Endostatin protein plus 50 times molar excess of control peptide (in 200 μl PBS), 5) 30 μg Endostatin protein plus 250 times molar excess of control peptide (in 200 μl PBS), 6) 30 μg Endostatin protein plus 10 times molar excess of E37 peptide (in 200 μl PBS), 7) 30 μg Endostatin protein plus 50 times molar excess of E37 peptide (in 200 μl PBS), and 8) 30 μg Endostatin protein plus 250 times molar excess of E37 peptide (in 200 μl PBS). Doses were administered daily for eleven days posterior to the thoracic cavity subcutaneously. All mice were sacrificed, the lungs removed and the number of surface metastases in each animal were counted under a stereo microscope.

B1: rhEndostatin: recombinant human Endostatin, antiangiogenic fragment of a C-terminal non-collagenous region of a collagen protein, produced in P. pastoris (protein)
chain: HSHRDFQPVLHLVALNSPLSGGMRGIRGADFQCFQQARAVGLAGTFRAFLSSRLQDLYSIVRRADRAAVPIVNLKDELLFPSWEALFSGSEGPLKPGARIFSFDGKDVLRHPTWPQKSVWHGSDPNGRRLTESYCETWRTEAPSATGQASSLLGGRLLGQSAASCHHAYIVLCIENSFMTASK
- circulating levels [1]: nM range
- Kd [2]: ~100 µM
- reduction of intratumoral blood flow (intratumoral blood flow): 50%
- inhibition of lung metastasis (B16-BL6 melanoma cells; 1.5 nmol rhEndostatin co-administered with 250-fold molar excess of E37 peptide): 11%
- inhibition of the formation of lung metastasis (B16-BL6 melanoma cells; 30 μg Endostatin protein alone, daily s.c. for eleven days): approximately 79%
- inhibition of the formation of lung metastasis (B16-BL6 melanoma cells; 30 μg Endostatin protein plus 10 fold molar excess of E37 peptide): approximately 76%
- inhibition of the formation of lung metastasis (B16-BL6 melanoma cells; 30 μg Endostatin protein plus 50 fold molar excess of E37 peptide): approximately 61%
- inhibition of the formation of lung metastasis (B16-BL6 melanoma cells; 30 μg Endostatin protein plus 50 fold molar excess of negative control peptide): approximately 79%
- inhibition of the formation of lung metastasis (B16-BL6 melanoma cells; 30 μg Endostatin protein plus 250 fold molar excess of E37 peptide): approximately 21%
- inhibition of the formation of lung metastasis (B16-BL6 melanoma cells; 30 μg Endostatin protein plus 250 fold molar excess of negative control peptide): approximately 73%
- inhibition of growth of experimental B16-BL6 lung metastases compared to buffer treated control mice (B16-BL6 melanoma cells; daily 1.5 nmol rhEndostatin (1.5 mg/kg/day)): greater than 70%
